Laboratory results: publication PMC5921417, “The β-glucosidase secreted by Talaromyces amestolkiae under carbon starvation: a versatile catalyst for biofuel production from plant and algal biomass” (Biotechnology for Biofuels, 2018)

Key:
[1] = test system: T1, O=[N+]([O-])c1ccc(O[C@@H]2O[C@H](CO)[C@@H](O)[C@H](O)[C@H]2O)cc1; assay: purified protein; type: biochemical, Talaromyces amestolkiae; details: sodium acetate 100 mM pH 4.0, 70 °C (standard reaction), 0.1% BSA
T1 construct: native enzyme secreted by T. amestolkiae, purified from culture (Mandels medium, glucose); signal peptide removed; glycosylated; gene codes for 857 aa; non-covalent dimer about 222 kDa; mature N-terminus YSPPAYP deduced from the cloning primer

[2] = test system: O=[N+]([O-])c1ccccc1O[C@@H]1O[C@H](CO)[C@@H](O)[C@H](O)[C@H]1O; assay: purified protein; details: sodium acetate 100 mM pH 4.0, 70 °C (standard reaction), 0.1% BSA
[3] = target: β-glucosidase BGL-3 from Talaromyces amestolkiae (native enzyme) (Talaromyces amestolkiae); assay: SEC; Superose 12 column; native purified BGL-3; mass around 222 kDa against 107.0 kDa for the monomer by MALDI-TOF

Substance | Km [1] | Vmax [1] | kcat [1] | kcat/Km [1] | Km [2] | Vmax [2] | kcat [2] | kcat/Km [2] | stoichiometry N [3]
BGL-3 (β-glucosidase g377) (Talaromyces amestolkiae) | 140 ± 100 µM | 381 µmol/min/mg | 1360 s⁻¹ | 9.71e+06 M⁻¹ s⁻¹ | 140 ± 100 µM | 142 µmol/min/mg | 507 s⁻¹ | 3.43e+06 M⁻¹ s⁻¹ | 
β-glucosidase BGL-3 from Talaromyces amestolkiae (native enzyme) |  |  |  |  |  |  |  |  | 2
